Measurements: patent publication US20250152742A1, “COMPOSITIONS AND METHODS FOR NEUROLOGICAL DISEASES” (Trames Bio, Inc., priority 2022, published 2025)

Tested on: engineered chimeric receptor SEQ ID NO: 33 and its mutants (human α7-nAChR ligand binding domain / human GlyRα1 ion pore domain) in Lenti-X 293T cells
Test: YFP fluorescence quenching anion reporter plate reader assay (percent quench, EC50)
Format: cell-based
Conditions: for YFP fluorescence quenching using CNL001 (percent quench): receptor named in row; for YFP fluorescence quenching using Varenicline, 3 nM var: ligand Varenicline 3 nM; for YFP fluorescence quenching using Varenicline, 30 nM var: ligand Varenicline 30 nM; for YFP fluorescence quenching using Varenicline, 300 nM var: ligand Varenicline 300 nM; for YFP fluorescence quenching using Varenicline, 500 nM var: ligand Varenicline 500 nM; for YFP fluorescence quenching using Varenicline, 1 uM var: ligand Varenicline 1 uM
Source text: To screen these mutant LGICs for those having novel response profiles to ligands, an anion reporter assay was developed to assess the function of the LGICs in a high throughput format. In this assay, cells expressing a YFP reporter whose fluorescence is quenched in the presence of anion are transfected with DNA encoding the channel of interest. Upon exposure to ligand, channels that are activated will flux anion, resulting in a dose-dependent quench of the YFP that can be detected on a plate reader. The greater the quench signal (i.e., the more positive the value), the higher the ligand activity on the receptor is.
Lenti-X 293T cells (LX293T, Clontech) were maintained in DMEM containing 10% FBS and 1% penicillin/streptomycin (Invitrogen). […] Two days before assay, cells were split at a density of 20,000 cells/well in a 96-well tissue culture plate coated with poly-d lysine (Thermo Scientific). The next day, the cells were transiently transfected with 0.1 μg of DNA per well using standard Fugene protocol (Promega). On the day of assay, cells were washed 2 times in 1X extracellular solution (1X ECS: 140 mM NaCl, 5 mM KCl, 1 mM MgCl2, 2 mM CaCl2, 10 mM HEPES, 10 mM glucose, pH 7.2, mOsms 300). After the last wash, 100 μL of 1X ECS was added to the wells and the plate was incubated at 37° C. for 30 min. While incubating the plate, the drugs were diluted to a 2X concentration in 1X ECS-Nal (same components as 1X ECS except the 140 mM NaCl was replaced by 140 mM Nal). The plates were then read on a Flexstation3 (Molecular Devices). Each well, 8 wells at a time, of the plate is read for 2 min using a Flexstation3 (Molecular Devices) as follows: 1) a baseline YFP fluorescence is read for 17 sec, 2) 100 μL of ligand is added, and 3) the changes in YFP fluorescence are then measured every 1.3 sec for 1 minute and 43 seconds. The percent quench is calculated from the average fluorescence of the last 10 seconds of the read divided by the baseline average of the first 15 seconds prior to the ligand addition.
FIGS. 1A-1J provide heat maps of the percent quench of YFP fluorescence following stimulation by various doses of either acetylcholine or the non-native ligand as indicated in the Figures. CODA71 (SEQ ID NO: 33) was used as a control, and CODA75 (SEQ ID NO: 29, a non-responding chimeric engineered receptor) was used as the negative control. Quenching of the fluorescence signal, as indicated by blue shaded cells, indicate the level of engineered receptor activation by the non-native ligand at that concentration.

B1: CODA330: engineered receptor: L131F in SEQ ID NO: 33 (protein)
chain: MRCSPGGVWLALAASLLHVSLQGEFQRKLYKELVKNYNPLERPVANDSQPLTVYFSLSLLQIMDVDEKNQVLTTNIWLQMSWTDHYLQWNVSEYPGVKTVRFPDGQIWKPDILLYNSADERFDATFHTNVFVNSSGHCQYLPPGIFKSSCPMDLKNFPMDVQTCKLKFGSWSYGGWSLDLQMQEADISGYIPNGEWDLVGIPGKRSERFYECCKEPYPDVTFTVTMRRRMGYYLIQMYIPSLLIVILSWISFWINMDAAPARVGLGITTVLTMTTQSSGSRASLPKVSYVKAIDIWMAVCLLFVFSALLEYAAVNFVSRQHKELLRFRRKRRHHKSPMLNLFQEDEAGEGRFNFSAYGMGPACLQAKDGISVKGANNSNTTNPPPAPSKSPEEMRKLFIQRAKKIDKISRIGFPMAFLIFNMFYWIIYKIVRREDVHNQ
modifications: synthetic sequence of chimeric LGIC
Question: For B1, which “YFP fluorescence quenching using CNL001 (percent quench)” value (1 nM CNL001, first column so headed) is on record?
Answer: 76.289%

Question: And the “YFP fluorescence quenching using CNL001 (percent quench)” value (1 nM CNL001, second column so headed)?
Answer: 78.896%

Question: What about the “YFP fluorescence quenching using TC-5619/Bradanicline (percent quench)” value (1 nM brd (TC-5619/Bradanicline)) of the same molecule?
Answer: −12.4%

Question: And the “YFP fluorescence quenching using TC-5619/Bradanicline (percent quench)” value (3 nM brd (TC-5619/Bradanicline))?
Answer: 25.12%

Question: What about the “YFP fluorescence quenching using CNL001 (percent quench)” value (10 nM CNL001, first column so headed) of the same molecule?
Answer: 79.339%

Question: And the “YFP fluorescence quenching using CNL001 (percent quench)” value (10 nM CNL001, second column so headed)?
Answer: 80.245%

Question: And the “YFP fluorescence quenching using TC-5619/Bradanicline (percent quench)” value (10 nM brd (TC-5619/Bradanicline))?
Answer: 72.19%

Question: And the “YFP fluorescence quenching using TC-6683 (percent quench)” value (30 nM TC-6683)?
Answer: −22.26%

Question: And the “YFP fluorescence quenching using TC-5619/Bradanicline (percent quench)” value (30 nM brd (TC-5619/Bradanicline))?
Answer: 76.35%

Question: What about the “YFP fluorescence quenching using CNL001 (percent quench)” value (50 nM CNL001, first column so headed) of the same molecule?
Answer: 80.831%

Question: What about the “YFP fluorescence quenching using CNL001 (percent quench)” value (50 nM CNL001, second column so headed) of the same molecule?
Answer: 80.605%

Question: What about the “YFP fluorescence quenching using ABT-126 (percent quench)” value (50 nM abt (ABT-126)) of the same molecule?
Answer: −16.22%

Question: What about the “YFP fluorescence quenching using CNL001 (percent quench)” value (100 nM CNL001, first column so headed) of the same molecule?
Answer: 81%

Question: And the “YFP fluorescence quenching using CNL001 (percent quench)” value (100 nM CNL001, second column so headed)?
Answer: 80.663%

Question: What about the “YFP fluorescence quenching (percent quench)” value (100 nM CNL002) of the same molecule?
Answer: −3.76%

Question: And the “YFP fluorescence quenching using ABT-126 (percent quench)” value (100 nM abt (ABT-126))?
Answer: −11.89%

Question: What about the “YFP fluorescence quenching using AZD-0328 (percent quench)” value (100 nM azd0328) of the same molecule?
Answer: 27.56%

Question: And the “YFP fluorescence quenching using TC-5619/Bradanicline (percent quench)” value (100 nM brd (TC-5619/Bradanicline))?
Answer: 78.94%

Question: What about the “YFP fluorescence quenching using TC-6683 (percent quench)” value (300 nM TC-6683) of the same molecule?
Answer: −18.89%

Question: And the “YFP fluorescence quenching using ABT-126 (percent quench)” value (300 nM abt (ABT-126))?
Answer: 39.23%

Question: What about the “YFP fluorescence quenching using AZD-0328 (percent quench)” value (300 nM azd0328) of the same molecule?
Answer: 73.35%

Question: What about the “YFP fluorescence quenching using TC-5619/Bradanicline (percent quench)” value (300 nM brd (TC-5619/Bradanicline)) of the same molecule?
Answer: 77.06%

Question: And the “YFP fluorescence quenching using CNL001 (percent quench)” value (1 uM CNL001, first column so headed)?
Answer: 81.293%

Question: And the “YFP fluorescence quenching using CNL001 (percent quench)” value (1 uM CNL001, second column so headed)?
Answer: 81.428%

Question: And the “YFP fluorescence quenching (percent quench)” value (1 uM CNL002)?
Answer: 68.51%

Question: What about the “YFP fluorescence quenching using ABT-126 (percent quench)” value (1 uM abt (ABT-126)) of the same molecule?
Answer: 66.5%

Question: And the “YFP fluorescence quenching using TC-5619/Bradanicline (percent quench)” value (1 uM brd (TC-5619/Bradanicline))?
Answer: 78.61%

Question: What about the “YFP fluorescence quenching using TC-6683 (percent quench)” value (3 uM TC-6683) of the same molecule?
Answer: −9.45%

Question: What about the “YFP fluorescence quenching (percent quench)” value (10 uM ach (acetylcholine)) of the same molecule?
Answer: 11.07%

Question: And the “YFP fluorescence quenching (percent quench)” value (30 uM CNL002)?
Answer: 77.77%

Question: What about the “YFP fluorescence quenching using TC-6683 (percent quench)” value (30 uM TC-6683) of the same molecule?
Answer: −9.23%

Question: And the “YFP fluorescence quenching using AZD-0328 (percent quench)” value (30 uM azd0328)?
Answer: 77.14%

Question: What about the “YFP fluorescence quenching using TC-6683 (percent quench)” value (100 uM TC-6683) of the same molecule?
Answer: −10.75%

Question: And the “YFP fluorescence quenching (percent quench)” value (100 uM ach (acetylcholine))?
Answer: 43.34%

Question: And the “YFP fluorescence quenching (percent quench)” value (1 mM ach (acetylcholine))?
Answer: 77.52%

Question: And the “YFP fluorescence quenching (percent quench)” value (3 mM ach (acetylcholine))?
Answer: 74.89%

Question: What about the “YFP fluorescence quenching using Facinicline, 30 nM fac” value (ligand Facinicline 30 nM) of the same molecule?
Answer: 2.9

Question: What about the “YFP fluorescence quenching using Facinicline, 300 nM fac” value (ligand Facinicline 300 nM) of the same molecule?
Answer: 74.96

Question: And the “YFP fluorescence quenching using Facinicline, 10 uM fac” value (ligand Facinicline 10 uM)?
Answer: 81.97

Question: And the “YFP fluorescence quenching using Facinicline, 30 uM fac” value (ligand Facinicline 30 uM)?
Answer: 78.31

Question: And the “YFP fluorescence quenching using TC-6987, 1 uM tc6987” value (ligand TC-6987 1 uM)?
Answer: 53.37

Question: And the “YFP fluorescence quenching using TC-6987, 10 uM tc6987” value (ligand TC-6987 10 uM)?
Answer: 74.23

Question: And the “YFP fluorescence quenching using TC-6987, 500 uM tc6987” value (ligand TC-6987 500 uM)?
Answer: 72.25

Question: And the “YFP fluorescence quenching using Varenicline, 3 nM var” value (first column)?
Answer: −3.016

Question: And the “YFP fluorescence quenching using Varenicline, 3 nM var” value (second column)?
Answer: −1.452

Question: What about the “YFP fluorescence quenching using Varenicline, 30 nM var” value (first column) of the same molecule?
Answer: −0.193

Question: What about the “YFP fluorescence quenching using Varenicline, 30 nM var” value (second column) of the same molecule?
Answer: −1.853

Question: What about the “YFP fluorescence quenching using Varenicline, 300 nM var” value (first column) of the same molecule?
Answer: 6.915

Question: What about the “YFP fluorescence quenching using Varenicline, 300 nM var” value (second column) of the same molecule?
Answer: 6.513

Question: And the “YFP fluorescence quenching using Varenicline, 500 nM var” value (first column)?
Answer: 27.593

Question: What about the “YFP fluorescence quenching using Varenicline, 500 nM var” value (second column) of the same molecule?
Answer: 29.863

Question: What about the “YFP fluorescence quenching using Varenicline, 1 uM var” value (first column) of the same molecule?
Answer: 67.499

Question: And the “YFP fluorescence quenching using Varenicline, 1 uM var” value (second column)?
Answer: 65.57
